Measured values reported in US20210284749A1 (ABL BIO, published 2021).
Where two headings read alike, the source gives them in different places.

T1: recombinant human BCMA (ELISA antigen, construct not specified) (human, UniProt Q02223 1-54)
T1 construct: Fc 1-51; Fc/His 1-51; Fc 4-48) was coated in these ELISAs; also called recombinant BCMA; recombinant protein
T1 sequence: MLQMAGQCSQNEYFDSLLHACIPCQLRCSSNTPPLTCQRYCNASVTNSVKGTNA

T2: human BCMA-Fc/His (1-51) (human, UniProt Q02223 1-51)
T2 construct: also called recombinant human BCMA-Fc/His; recombinant human BCMA-His (Sino Biological Inc.); not shown: Fc region; C-terminal His tag
T2 sequence: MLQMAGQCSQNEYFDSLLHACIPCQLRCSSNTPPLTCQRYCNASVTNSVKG

T3: human BCMA expressed on cell surface (H929, OPM-2, CHOK1-hBCMA cells) (human, UniProt Q02223 1-184)
T3 construct: also called cell-surface BCMA; BCMA on cell surface
T3 sequence: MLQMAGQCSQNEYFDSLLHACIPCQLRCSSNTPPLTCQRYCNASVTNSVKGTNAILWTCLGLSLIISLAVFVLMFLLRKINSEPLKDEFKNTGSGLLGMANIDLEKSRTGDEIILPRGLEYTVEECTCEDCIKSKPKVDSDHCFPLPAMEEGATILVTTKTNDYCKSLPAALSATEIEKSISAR

T4: human monomeric BCMA antigen (human, UniProt Q02223 5-54, limits assumed)
T4 construct: also called recombinant human BCMA antigens
T4 chain: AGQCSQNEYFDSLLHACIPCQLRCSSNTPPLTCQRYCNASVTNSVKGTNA


Columns and labels:
[1] = target: T1, recombinant human BCMA (ELISA antigen, …); assay: ELISA on coated recombinant human BCMA, antibody titrated, HRP anti-Fab detection, absorbance 450 nm
Protocol: Specific binding abilities of the anti-BCMA IgG antibodies isolated in Example 1.4 to recombinant BCMA protein were analyzed by ELISA.
(§1) Using recombinant human BCMA or monkey BCMA as an antigen, and HRP-conjugated Fab polychronal antibody reagent (Pierce, 31414) as a secondary antibody, ELISA was performed as described in Example 1.3.

[2] = target: T2, human BCMA-Fc/His (1-51); assay: BLI (Octet), antigen on Ni-NTA biosensor, IgG in solution
Protocol: A 96-well black microplate was mounted on a Biosensor tray case, 200 μl of 1XKB was added to each of the 8 wells, and then 8 Ni-NTA biosensors (Fortebio) were inserted thereto for hydration for 10 minutes. For antigen fixation, 5 μg/ml of recombinant human BCMA-His (Sino Biological Inc.) was diluted using 1XKB. Experiments were performed with a threshold of 0.5 to 1.0 nm, and Octet Data Acquisition 9.0 software was activated to create an Octet program template. The first step was for Baseline 1, the second step was for loading, and the threshold was fixed to 0.5 to 1.0 nm. In the third step, which was for Baseline 2, association for 5 minutes and dissociation for 20 minutes were performed. A plate temperature was fixed to 30° C., and the prepared buffer solution was placed in order into a new 96-well black microplate according to the Octet program template. 200 μl of 1XKB used as Baseline 1 and recombinant human BCMA-Fc/His which is an antigen to be loaded were diluted to 5 μg/ml, and 200 μl of the dilution was added thereto. After adding 200 μl of 1XKB used as Baseline 2, 200 μl of the antibody to be reacted with the antigen was dispensed, and the instrument was operated. After completion of the experiment, an association constant (kon), a dissociation constant (kdis), and an equilibrium dissociation constant (KD) for each antibody were analyzed and calculated with Octet Analysis 9.0 software.

[3] = target: T1, recombinant human BCMA (ELISA antigen, …); assay: ELISA on coated recombinant human BCMA, antibody titrated, HRP anti-Fab detection, absorbance 450 nm; remark: listed apart in the source
Protocol: as §1

[4] = target: T5, monkey (Rhesus) BCMA (1-53) fused to the Fc region of human IgG1 (monkey (Rhesus); human, UniProt Q02223 1-54); assay: ELISA on coated monkey (Rhesus) BCMA, antibody titrated, HRP anti-Fab detection, absorbance 450 nm
T5 construct: Sino Biological Inc. 90103-C02H; also called monkey BCMA; Monkey BCMA (1-53); not shown: Fc region of human IgG1
Protocol: as §1

[5] = target: T3, human BCMA expressed on cell surface …; assay: FACS on H929 cells
[6] = target: T4, human monomeric BCMA antigen; assay: SPR (Biacore T200), antibody captured on protein A chip, antigen 6.25-100 nM
Protocol: In particular, the prepared antibodies were diluted with a 1×HPS-EP buffer (GE Healthcare, BR-1006-69). The target antigen-binding affinity analysis was performed using a Biacore T200 (GE Healthcare). The antibodies were flowed onto a protein A chip at a contact time of 60 seconds, a stabilization time of 30 seconds, and a flow rate of 30 μl/min until a capture level reached 128 RU (Response Unit), thereby preparing an antibody-captured protein A chip.
The antigen was sequentially diluted with a 1×HPS-EP buffer, by 2-fold each time, from 100 nM to 6.25 nM, thereby preparing a total of […] samples. The 1×HPS-EP buffer was used as a negative control group (blank).
The prepared antigen was flowed across the antibody-captured protein A chip at a flow rate of 30 μl/min for an association time of 60 seconds, followed by a disassociation phase for 180 seconds. Regeneration was performed with a 10-mM Glycine-HCL (pH 1.5) buffer (GE Healthcare, BR-1003-54) at a flow rate of 30 μl/min for a contact time of 30 seconds.

[7] = target: T1, recombinant human BCMA (ELISA antigen, …); assay: ELISA on recombinant BCMA

Binder | EC50 (read off the curve) [1] [µg/mL] | Kd [2] [nM] | koff [2] [s⁻¹] | kon [2] [M⁻¹ s⁻¹] | MFI [5] | EC50 [7] [nM] | also measured
anti-BCMA IgG antibody 2C6 (antibody, V domains shown) VH: EVQLLESGGGLVQPGGSLRLSCAASGFTFSNYGMSWVRQAPGKGLEWVSSIDYNGSTYYNPSLKSRFTISRDNSKNTLYLQMNSLRAEDTAVYYCAKEHGLFDSWGQGTLVTVSS VL: EIVLTQSPGTLSLSPGERATLSCRVSQSISSYLNWYQQKPGQAPRLLIYDASTRAIGIPDRFSGSGSGTDFTLTISRLEPEDFAVYYCQQVNSYPITFGQGTKVEIKR | ~0.05 | 0.37 | 0.000403 | 1.09e+06 |  |  | 
anti-BCMA IgG antibody 2G (antibody, V domains shown) VH: EVQLVESGGGLVQPGGSLRLSCAASGFTFSNYAMSWVRQAPGKGLEWVSAISSSGSTIYYADSVKGRFTISRDNSKNTLYLQMNSLRAEDTAVYYCAKAGYYGSIYAFDYWGQGTLVTVSS VL: DIQMTQSPSSLSASVGDRVTITCRASQSISSYLNWYQQKPGKAPKLLIYATSRLQSGVPSRFSGSGSGTDFTLTISSLQPEDFATYYCQQSSSFPWTFGQGTKVEIKR |  | 1.08 | 0.00078 | 720000 |  |  | EC50 (read off the curve) [3]: ~0.04 µg/mL; binding result [4]: binds
anti-BCMA IgG antibody 1H (antibody, V domains shown) VH: EVQLVESGGGLVQPGGSLRLSCAASGFTFSNYAMSWVRQAPGKGLEWVSGISHSGSSTYYADSVKGRFTISRDNSKNTLYLQMNSLRAEDTAVYYCAKHVYIIEFESLDIWGQGTLVTVSS VL: not shown |  | 1.45 | 0.000592 | 409000 |  |  | EC50 (read off the curve) [3]: ~0.08 µg/mL; EC50 (read off the curve) [4]: ~0.2 µg/mL
anti-BCMA IgG antibody 5G (antibody, V domains shown) VH: EVQLVESGGGLVQPGGSLRLSCAASGFTFSNYAMSWVRQAPGKGLEWVSGISQSGSSTYYADSVKGRFTISRDNSKNTLYLQMNSLRAEDTAVYYCAKHAYIIEFESMDIWGQGTLVTVSS VL: not shown |  | 361 | 0.0143 | 39700 |  |  | binding result [4]: binds
mutant antibody 5D5 LM4 (antibody, V domains shown, Light chain CDR mutant of 5D5 (IgG1); heavy chain as 5D5) VH: EVQLLESGGGLVQPGGSLRLSCAASGFTFSDYGLSWVRQAPGKGLEWVSLIDSSGSSTFYADSVKGRFTISRDNSKNTLYLQMNSLRAEDTAVYYCAKEHGLFDSWGQGTLVTVSS VL: EIVLTQSPGTLSLSPGERATLSCKASQDIDDAINWYQQKPGQAPRLLIYDASLRATGIPDRFSGSGSGTDFTLTISRLEPEDFAVYYCQQSLRTPITFGQGTKLEIKR |  |  |  |  | 62.3 | 0.0708 | Kd [6]: 14.2 nM; koff [6]: 0.0594 s⁻¹; kon [6]: 4.17e+06 M⁻¹ s⁻¹
mutant antibody 5D5 LM2 (antibody, V domains shown, Light chain CDR mutant of 5D5 (IgG1); heavy chain as 5D5) VH: EVQLLESGGGLVQPGGSLRLSCAASGFTFSDYGLSWVRQAPGKGLEWVSLIDSSGSSTFYADSVKGRFTISRDNSKNTLYLQMNSLRAEDTAVYYCAKEHGLFDSWGQGTLVTVSS VL: EIVLTQSPGTLSLSPGERATLSCKASQDIDEDINWYQQKPGQAPRLLIYDASLRATGIPDRFSGSGSGTDFTLTISRLEPEDFAVYYCQQSLRTPITFGQGTKLEIKR |  |  |  |  | 29 | 0.0858 | 
mutant antibody 5D5 LM5 (antibody, V domains shown, Light chain CDR mutant of 5D5 (IgG1); heavy chain as 5D5) VH: EVQLLESGGGLVQPGGSLRLSCAASGFTFSDYGLSWVRQAPGKGLEWVSLIDSSGSSTFYADSVKGRFTISRDNSKNTLYLQMNSLRAEDTAVYYCAKEHGLFDSWGQGTLVTVSS VL: EIVLTQSPGTLSLSPGERATLSCKASQDIDDEINWYQQKPGQAPRLLIYDASLRATGIPDRFSGSGSGTDFTLTISRLEPEDFAVYYCQQSLRTPITFGQGTKLEIKR |  |  |  |  | 73.6 | 0.0763 | 
mutant antibody 5D5 LM3 (antibody, V domains shown, Light chain CDR mutant of 5D5 (IgG1); heavy chain as 5D5) VH: EVQLLESGGGLVQPGGSLRLSCAASGFTFSDYGLSWVRQAPGKGLEWVSLIDSSGSSTFYADSVKGRFTISRDNSKNTLYLQMNSLRAEDTAVYYCAKEHGLFDSWGQGTLVTVSS VL: EIVLTQSPGTLSLSPGERATLSCKASQDIDADINWYQQKPGQAPRLLIYDASLRATGIPDRFSGSGSGTDFTLTISRLEPEDFAVYYCQQSLRTPITFGQGTKLEIKR |  |  |  |  | 31.5 | 0.0593 | 
mutant antibody 5A6 LM6 (antibody, V domains shown, Light chain CDR mutant of 5A6 (IgG1); heavy chain as 5A6) VH: EVQLLESGGGLVQPGGSLRLSCAASGFTFSNYGVHWVRQAPGKGLEWVSYISYSGGTYYNPSLKSRFTISRDNSKNTLYLQMNSLRAEDTAVYYCARDSDDFGFDYWGQGTLVTVSS VL: QSVLTQPPSASGTPGQRVTISCQGESLRSYYVNWYQQLPGTAPKLLIYDHSKRPTGVPDRFSGSKSGTSASLAISGLRSEDEADYYCQSYDASTVVFGGGTKLTVLG |  |  |  |  | 78.9 | 0.0537 | Kd [6]: 18.1 nM; koff [6]: 0.00922 s⁻¹; kon [6]: 509000 M⁻¹ s⁻¹
anti-BCMA IgG antibody 4H9 (antibody, V domains shown) VH: EVQLLESGGGLVQPGGSLRLSCAASGFTFSGYSMSWVRQAPGKGLEWVSSIYHTGYTYYNPSLKSRFTISRDNSKNTLYLQMNSLRAEDTAVYYCARYKSGAFDIWGQGTLVTVSS VL: EIVLTQSPGTLSLSPGERATLSCRASQSVSRNLAWYQQKPGQAPRLLIYGVSSRATGIPDRFSGSGSGTDFTLTISRLEPEDFAVYYCQQYGSSPPTFGQGTKVEIKR | ~0.01 | 1.29 | 0.00179 | 1.38e+06 |  |  | 
anti-BCMA IgG antibody 5C3 (antibody, V domains shown) VH: EVQLLESGGGLVQPGGSLRLSCAASGFTFSDYYIHWVRQAPGKGLEWVSAISGSGGSTYYADSVKGRFTISRDNSKNTLYLQMNSLRAEDTAVYYCASDLGDTTFDSWGQGTLVTVSS VL: EIVLTQSPGTLSLSPGERATLSCQASDDISNYLNWYQQKPGQAPRLLIYGVSNRASGIPDRFSGSGSGTDFTLTISRLEPEDFAVYYCQQSYSTPPITFGQGTKLEIKR | ~0.9 | 16.4 | 0.00966 | 591000 |  |  | 
anti-BCMA IgG antibody 2F8 (antibody, V domains shown) VH: EVQLLESGGGLVQPGGSLRLSCAASGFTFSNYGMSWVRQAPGKGLEWVSEIIPIFDTSNYAQKFQGRFTISRDNSKNTLYLQMNSLRAEDTAVYYCAKIPGNRHDYWGQGTLVTVSS VL: QSVLTQPPSASGTPGQRVTISCTRMQRQSDWYQQLPGTAPKLLIYDNNKRPLGVPDRFSGSKSGTSASLAISGLRSEDEADYYCQSYDSNAYVVFGGGTKLTVLG | ~0.07 | 104 | 0.0152 | 147000 |  |  | 
